In patent US20160168251A1 (MorphoSys, published 2016):

How the values were obtained:
[1] = biological target: T1, human NPRA on HEK293 cells bound to ANP (human, UniProt P01160 124-151); assay: cell-based or functional assay
T1 sequence: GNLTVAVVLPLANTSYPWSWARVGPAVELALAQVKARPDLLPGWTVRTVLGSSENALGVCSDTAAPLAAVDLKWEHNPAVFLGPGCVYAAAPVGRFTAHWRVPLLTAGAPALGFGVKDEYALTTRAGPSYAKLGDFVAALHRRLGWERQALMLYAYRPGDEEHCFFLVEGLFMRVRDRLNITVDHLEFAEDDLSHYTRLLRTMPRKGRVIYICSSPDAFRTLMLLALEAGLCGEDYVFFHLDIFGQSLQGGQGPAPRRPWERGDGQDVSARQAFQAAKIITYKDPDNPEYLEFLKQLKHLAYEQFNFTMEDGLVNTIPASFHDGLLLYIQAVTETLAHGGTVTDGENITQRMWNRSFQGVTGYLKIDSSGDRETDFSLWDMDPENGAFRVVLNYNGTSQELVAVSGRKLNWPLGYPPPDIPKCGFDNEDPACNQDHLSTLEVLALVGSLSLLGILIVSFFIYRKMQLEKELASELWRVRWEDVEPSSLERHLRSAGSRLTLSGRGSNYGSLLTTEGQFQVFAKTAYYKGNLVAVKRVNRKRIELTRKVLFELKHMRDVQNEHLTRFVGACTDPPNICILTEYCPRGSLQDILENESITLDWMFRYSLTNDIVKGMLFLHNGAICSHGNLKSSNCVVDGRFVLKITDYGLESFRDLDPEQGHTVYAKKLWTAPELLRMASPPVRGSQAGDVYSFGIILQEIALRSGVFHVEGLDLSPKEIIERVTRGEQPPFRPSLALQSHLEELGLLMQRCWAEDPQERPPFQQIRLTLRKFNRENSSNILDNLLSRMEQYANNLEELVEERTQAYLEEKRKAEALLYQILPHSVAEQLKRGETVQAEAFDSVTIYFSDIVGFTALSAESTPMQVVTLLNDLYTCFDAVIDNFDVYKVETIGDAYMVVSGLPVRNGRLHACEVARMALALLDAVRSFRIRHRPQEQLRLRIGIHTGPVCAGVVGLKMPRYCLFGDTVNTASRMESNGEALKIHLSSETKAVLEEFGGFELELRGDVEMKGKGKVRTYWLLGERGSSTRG
T1 sequence (peptide): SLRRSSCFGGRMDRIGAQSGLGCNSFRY

[2] = biological target: T1, human NPRA on HEK293 cells bound to ANP; assay: FACS, HEK NPRA cells loaded with 100 nM ANP
[3] = biological target: T2, human NPRC on HEK293 cells, without added ligand (human, UniProt P17342 27-541); assay: FACS, HEK NPRC cells without ligand
T2 construct: whole, on cells; also called HEK NPRC cells; natriuretic peptide receptor C
T2 sequence (looked up): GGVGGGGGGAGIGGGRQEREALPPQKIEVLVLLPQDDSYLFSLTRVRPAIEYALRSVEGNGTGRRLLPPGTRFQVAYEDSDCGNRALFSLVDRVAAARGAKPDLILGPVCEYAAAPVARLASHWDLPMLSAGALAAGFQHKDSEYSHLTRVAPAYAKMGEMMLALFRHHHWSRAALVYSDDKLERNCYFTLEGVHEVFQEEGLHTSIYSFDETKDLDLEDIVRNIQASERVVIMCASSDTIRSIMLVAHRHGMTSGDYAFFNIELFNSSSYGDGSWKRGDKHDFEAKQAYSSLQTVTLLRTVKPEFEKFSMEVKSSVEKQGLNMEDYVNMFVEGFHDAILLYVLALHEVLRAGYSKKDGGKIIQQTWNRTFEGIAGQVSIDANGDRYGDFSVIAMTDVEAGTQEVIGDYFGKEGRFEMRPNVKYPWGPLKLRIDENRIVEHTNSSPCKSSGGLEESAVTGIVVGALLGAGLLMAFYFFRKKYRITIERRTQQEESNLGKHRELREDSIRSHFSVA
Protocol: (§1) HEK NPRA cells are detached with Accutase (PAA Laboratories GmbH, Cat. No. L11-007, Austria), harvested by centrifugation (900 rpm, 4 minutes) and resuspended in FACS buffer (PBS/3% FCS/0.02% NaN3) to a final concentration of 10⁶ cells/ml. 100 μl of the cell suspension is transferred to each well of a 96 round bottom plate (TC Microwell 96U, Nunc). […] Cells are washed in 150 μl of FACS buffer, pelleted and resuspended in 50 μl of the solution containing the primary antibody comprising a BEL extract of Fabs, a diluted BEL extract or purified antibody diluted in FACS buffer and incubated on ice for 30 min. Cells are washed again in FACS buffer and resuspended in 50 μl of FACS buffer containing the secondary antibody (R-Phycoerythrin-conjugated Affipure F(ab′)₂ Fragment Goat Anti-Human IgG, Dianova) and incubated on ice for 45 min. Cells are washed twice with FACS buffer and resuspended in 200 μl of FACS buffer for analysis in the FACS Array (BD Biosciences).

[4] = biological target: T3, human NPRC on HEK293 cells in the presence of ANP (human, UniProt P17342 27-541; P01160 124-151); assay: FACS, HEK NPRC cells with 100 nM ANP
T3 construct: whole, on cells;mature; also called HEK NPRC cells + 100 nM ANP
T3 sequence (looked up): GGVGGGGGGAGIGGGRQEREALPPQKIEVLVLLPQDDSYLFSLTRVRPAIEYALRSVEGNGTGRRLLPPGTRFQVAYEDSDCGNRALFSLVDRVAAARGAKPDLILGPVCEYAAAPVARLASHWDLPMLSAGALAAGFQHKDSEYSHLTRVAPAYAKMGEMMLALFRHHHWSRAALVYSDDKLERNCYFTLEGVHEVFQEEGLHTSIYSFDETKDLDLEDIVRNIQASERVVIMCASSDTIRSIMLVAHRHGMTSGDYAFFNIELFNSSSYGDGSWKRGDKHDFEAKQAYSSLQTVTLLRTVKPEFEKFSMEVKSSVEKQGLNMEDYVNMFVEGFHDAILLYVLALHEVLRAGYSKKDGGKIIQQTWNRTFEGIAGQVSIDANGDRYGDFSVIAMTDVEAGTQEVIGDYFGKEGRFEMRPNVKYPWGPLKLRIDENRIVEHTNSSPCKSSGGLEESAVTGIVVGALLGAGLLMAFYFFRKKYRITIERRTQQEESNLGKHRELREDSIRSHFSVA
T3 sequence (peptide, looked up): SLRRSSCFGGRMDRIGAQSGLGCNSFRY
Protocol: as §1

[5] = biological target: T4, human NPRC on HEK293 cells in the presence of BNP (human, UniProt P17342 27-541; P16860 103-134); assay: FACS, HEK NPRC cells with 100 nM BNP
T4 construct: whole, on cells;mature; also called HEK NPRC cells + 100 nM BNP
T4 sequence (looked up): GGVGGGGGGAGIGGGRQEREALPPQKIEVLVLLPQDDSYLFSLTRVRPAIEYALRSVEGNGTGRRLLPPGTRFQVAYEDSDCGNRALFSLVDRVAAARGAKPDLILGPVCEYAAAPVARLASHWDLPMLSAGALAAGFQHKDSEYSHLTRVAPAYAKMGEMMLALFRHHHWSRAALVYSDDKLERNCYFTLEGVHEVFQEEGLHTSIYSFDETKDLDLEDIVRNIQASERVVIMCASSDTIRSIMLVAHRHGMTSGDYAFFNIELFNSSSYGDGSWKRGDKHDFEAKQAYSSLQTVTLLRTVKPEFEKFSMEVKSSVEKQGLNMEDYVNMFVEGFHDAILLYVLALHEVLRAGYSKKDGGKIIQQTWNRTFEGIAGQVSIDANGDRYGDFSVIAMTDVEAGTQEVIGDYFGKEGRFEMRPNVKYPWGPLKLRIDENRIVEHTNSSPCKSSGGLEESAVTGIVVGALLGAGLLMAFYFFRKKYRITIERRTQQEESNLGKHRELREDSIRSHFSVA
T4 sequence (peptide, looked up): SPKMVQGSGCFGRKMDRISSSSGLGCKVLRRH
Protocol: as §1

[6] = biological target: T1, human NPRA on HEK293 cells bound to ANP; assay: FACS, IgG4_Pro on HEK NPRA cells in the presence of 100 nM ANP
Protocol: as §1

[7] = biological target: T5, human NPRA on HEK293 cells, without added ligand (human, UniProt P16066 33-1061); assay: FACS, HEK NPRA cells without ligand
T5 construct: a signal peptide is not delimited; also called HEK NPRA cells; HEK hNPRA cells
T5 sequence: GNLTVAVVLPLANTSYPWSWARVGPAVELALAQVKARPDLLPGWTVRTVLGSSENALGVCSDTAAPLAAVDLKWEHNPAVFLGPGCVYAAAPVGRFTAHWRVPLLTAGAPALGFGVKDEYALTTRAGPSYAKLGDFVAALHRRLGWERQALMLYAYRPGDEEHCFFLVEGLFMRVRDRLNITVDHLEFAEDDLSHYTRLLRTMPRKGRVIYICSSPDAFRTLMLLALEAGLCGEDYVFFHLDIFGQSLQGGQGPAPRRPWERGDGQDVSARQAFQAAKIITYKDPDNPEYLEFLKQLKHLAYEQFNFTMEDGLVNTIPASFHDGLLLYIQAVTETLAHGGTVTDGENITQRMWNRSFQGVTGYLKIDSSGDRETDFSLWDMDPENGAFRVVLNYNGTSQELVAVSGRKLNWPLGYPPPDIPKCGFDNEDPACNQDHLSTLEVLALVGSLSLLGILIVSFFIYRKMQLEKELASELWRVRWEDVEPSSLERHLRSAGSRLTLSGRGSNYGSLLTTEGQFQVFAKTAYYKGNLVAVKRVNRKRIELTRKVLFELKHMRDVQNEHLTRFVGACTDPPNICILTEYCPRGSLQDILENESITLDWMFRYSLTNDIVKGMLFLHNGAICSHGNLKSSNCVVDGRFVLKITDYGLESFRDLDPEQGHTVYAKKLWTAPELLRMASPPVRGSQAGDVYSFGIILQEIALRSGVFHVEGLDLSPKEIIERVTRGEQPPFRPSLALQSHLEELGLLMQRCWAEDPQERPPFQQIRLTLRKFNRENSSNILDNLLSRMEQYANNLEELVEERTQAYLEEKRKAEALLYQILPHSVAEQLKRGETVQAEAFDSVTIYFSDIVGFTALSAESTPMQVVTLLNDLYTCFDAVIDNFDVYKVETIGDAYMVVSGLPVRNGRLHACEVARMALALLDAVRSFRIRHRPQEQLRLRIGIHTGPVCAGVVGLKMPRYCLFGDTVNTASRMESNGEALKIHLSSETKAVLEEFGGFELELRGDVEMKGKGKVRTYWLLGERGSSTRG

[8] = biological target: T6, NPRA-Fc fusion protein, without ligand (human); assay: ELISA on captured NPRA-Fc without ligand
T6 construct: also called NPRA-ECD-Fc; recombinant NPRA-Fc
T6 chain: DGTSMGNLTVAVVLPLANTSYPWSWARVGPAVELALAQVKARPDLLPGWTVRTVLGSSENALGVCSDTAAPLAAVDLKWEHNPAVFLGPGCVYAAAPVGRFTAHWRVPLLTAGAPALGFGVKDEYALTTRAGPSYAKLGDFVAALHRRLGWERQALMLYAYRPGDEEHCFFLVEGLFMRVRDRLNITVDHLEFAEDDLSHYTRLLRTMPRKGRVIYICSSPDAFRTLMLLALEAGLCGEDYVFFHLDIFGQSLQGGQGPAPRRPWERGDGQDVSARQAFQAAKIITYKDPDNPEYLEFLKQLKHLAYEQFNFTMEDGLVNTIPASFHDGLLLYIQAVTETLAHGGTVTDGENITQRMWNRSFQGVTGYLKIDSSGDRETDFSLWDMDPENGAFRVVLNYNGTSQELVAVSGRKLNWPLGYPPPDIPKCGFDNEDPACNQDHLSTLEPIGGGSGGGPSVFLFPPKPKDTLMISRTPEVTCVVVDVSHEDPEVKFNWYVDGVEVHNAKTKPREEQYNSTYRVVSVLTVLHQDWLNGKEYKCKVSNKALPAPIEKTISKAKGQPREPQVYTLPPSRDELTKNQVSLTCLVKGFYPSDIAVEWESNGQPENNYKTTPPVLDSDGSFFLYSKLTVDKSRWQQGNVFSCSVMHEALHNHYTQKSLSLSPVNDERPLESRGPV

biotinylated ANP = biological target: T7, biotinylated ANP (UniProt P01160 124-151, biotin label (position not given)); assay: binding to biotinylated ANP on streptavidin, ECL readout (legend: ELISA)
T7 construct: mature; Text: conjugated to Streptavidin beads; also called biotin-labeled ANP
T7 peptide (looked up): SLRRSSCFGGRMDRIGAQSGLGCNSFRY

Row | Binder | cGMP EC50 (nM), titration of the antibody on HEK NPRA cells with 200 pM ANP [1] [nM] | EC50 [2] [nM] | binding result [3] | binding result [4] | binding result [5] | EC50 [6] [nM] | binding result [7] | binding result [8] | binding result (biotinylated ANP)
1 | 5064 IgG4_Pro (antibody, V domains shown) VH: QVQLQQSGPGLVKPSQTLSLTCAISGDSVSSRSASWSWIRQSPGRGLEWLGRIYYRSKWYNDYAVSVKSRITINPDTSKNQFSLQLNSVTPEDTAVYYCARMDVPSFRYFDVWGQGTLVTVSS VL: not shown | 12.1 | 1.6 | no binding (tested: 20 nM) | no binding (tested: 20 nM) | no binding (tested: 20 nM) | 1.08 | – | – | –
2 | 5064 Fab-dHLX (other) VH: QVQLQQSGPGLVKPSQTLSLTCAISGDSVSSRSASWSWIRQSPGRGLEWLGRIYYRSKWYNDYAVSVKSRITINPDTSKNQFSLQLNSVTPEDTAVYYCARMDVPSFRYFDVWGQGTLVTVSS VL: not shown | – | – | – | – | – | – | no binding (tested: 20 µg/ml) | no binding (tested: 20 µg/ml) | no binding (tested: 10 nM)
